Measurements: article PMC5789857

Biological target: TBEV envelope protein (E-protein), strain Hypr, in the purified virion (tick-borne encephalitis virus, strain Hypr) (UniProt Q01299)
Test: cryo-EM structure

TBEV envelope protein (E-protein), strain Hypr, in the purified virion (from UniProt Q01299) (natural protein)
stoichiometry N: 2
